{
  "source": "patent US20210388087A1",
  "about": "(Chugai, published 2021)",
  "binders": {"B1": {"name": "H183/L072 VH A32S (antibody, name in Kabat numbering, V domains shown)", "VH": "QVQLVESGGGLVQPGRSLRLSCAASGFTFSNSWMHWVRQAPGKGLEWVAQIKDKGNAYAAYYAPSVKGRFTISRDDSKNSIYLQMNSLKTEDTAVYYCHYVHYASASTVLPAFGVDAWGQGTTVTVSS", "VL": "DIVMTQSPLSLPVTPGEPASISCQASQELVHMNRNTYLHWYQQKPGQAPRLLIYKVSNRFPGVPDRFSGSGSGTDFTLKISRVEAEDVGVYYCAQGTSVPFTFGQGTKLEIK"}, "B2": {"name": "H183/L072 VH A54S (antibody, name in Kabat numbering, V domains shown)", "VH": "B1 VH with S32A, A57S", "VL": "B1 VL"}, "B3": {"name": "H183/L072 VH A32T (antibody, name in Kabat numbering, V domains shown)", "VH": "B1 VH with S32T", "VL": "B1 VL"}, "B4": {"name": "H183/L072 VH A54E (antibody, name in Kabat numbering, V domains shown)", "VH": "B1 VH with S32A, A57E", "VL": "B1 VL"}, "B5": {"name": "H183/L072 VH A54H (antibody, name in Kabat numbering, V domains shown)", "VH": "B1 VH with S32A, A57H", "VL": "B1 VL"}, "B6": {"name": "H183/L072 VH A54F (antibody, name in Kabat numbering, V domains shown)", "VH": "B1 VH with S32A, A57F", "VL": "B1 VL"}, "B7": {"name": "H183/L072 VH A54T (antibody, name in Kabat numbering, V domains shown)", "VH": "B1 VH with S32A, A57T", "VL": "B1 VL"}, "B8": {"name": "H183/L072 VH A56I (antibody, name in Kabat numbering, V domains shown)", "VH": "B1 VH with S32A, A59I", "VL": "B1 VL"}, "B9": {"name": "H183/L072 VH A54K (antibody, name in Kabat numbering, V domains shown)", "VH": "B1 VH with S32A, A57K", "VL": "B1 VL"}, "B10": {"name": "H183/L072 VH A54M (antibody, name in Kabat numbering, V domains shown)", "VH": "B1 VH with S32A, A57M", "VL": "B1 VL"}, "B11": {"name": "H183/L072 VH A54I (antibody, name in Kabat numbering, V domains shown)", "VH": "B1 VH with S32A, A57I", "VL": "B1 VL"}, "B12": {"name": "H183/L072 VH A56L (antibody, name in Kabat numbering, V domains shown)", "VH": "B1 VH with S32A, A59L", "VL": "B1 VL"}, "B13": {"name": "H183/L072 VH A56G (antibody, name in Kabat numbering, V domains shown)", "VH": "B1 VH with S32A, A59G", "VL": "B1 VL"}, "B14": {"name": "H183/L072 VH A54Y (antibody, name in Kabat numbering, V domains shown)", "VH": "B1 VH with S32A, A57Y", "VL": "B1 VL"}, "B15": {"name": "H183/L072 VH A54V (antibody, name in Kabat numbering, V domains shown)", "VH": "B1 VH with S32A, A57V", "VL": "B1 VL"}, "B16": {"name": "H183/L072 VH A56H (antibody, name in Kabat numbering, V domains shown)", "VH": "B1 VH with S32A, A59H", "VL": "B1 VL"}, "B17": {"name": "H183/L072 VH A56M (antibody, name in Kabat numbering, V domains shown)", "VH": "B1 VH with S32A, A59M", "VL": "B1 VL"}, "B18": {"name": "H183/L072 VH A54W (antibody, name in Kabat numbering, V domains shown)", "VH": "B1 VH with S32A, A57W", "VL": "B1 VL"}, "B19": {"name": "H183/L072 VH A56D (antibody, name in Kabat numbering, V domains shown)", "VH": "B1 VH with S32A, A59D", "VL": "B1 VL"}, "B20": {"name": "H183/L072 VH A54D (antibody, name in Kabat numbering, V domains shown)", "VH": "B1 VH with S32A, A57D", "VL": "B1 VL"}, "B21": {"name": "H183/L072 VH A32V (antibody, name in Kabat numbering, V domains shown)", "VH": "B1 VH with S32V", "VL": "B1 VL"}, "B22": {"name": "H183/L072 VH A54N (antibody, name in Kabat numbering, V domains shown)", "VH": "B1 VH with S32A, A57N", "VL": "B1 VL"}, "B23": {"name": "H183/L072 VH A56R (antibody, name in Kabat numbering, V domains shown)", "VH": "B1 VH with S32A, A59R", "VL": "B1 VL"}, "B24": {"name": "H183/L072 VH A56P (antibody, name in Kabat numbering, V domains shown)", "VH": "B1 VH with S32A, A59P", "VL": "B1 VL"}, "B25": {"name": "H183/L072 VH A54Q (antibody, name in Kabat numbering, V domains shown)", "VH": "B1 VH with S32A, A57Q", "VL": "B1 VL"}, "B26": {"name": "H183/L072 VH A56K (antibody, name in Kabat numbering, V domains shown)", "VH": "B1 VH with S32A, A59K", "VL": "B1 VL"}, "B27": {"name": "H183/L072 VH A56E (antibody, name in Kabat numbering, V domains shown)", "VH": "B1 VH with S32A, A59E", "VL": "B1 VL"}, "B28": {"name": "H183/L072 VH A54L (antibody, name in Kabat numbering, V domains shown)", "VH": "B1 VH with S32A, A57L", "VL": "B1 VL"}, "B29": {"name": "H183/L072 VH A54R (antibody, name in Kabat numbering, V domains shown)", "VH": "B1 VH with S32A, A57R", "VL": "B1 VL"}, "B30": {"name": "H183/L072 VH A56S (antibody, name in Kabat numbering, V domains shown)", "VH": "B1 VH with S32A, A59S", "VL": "B1 VL"}, "B31": {"name": "H183/L072 VH A32Y (antibody, name in Kabat numbering, V domains shown)", "VH": "B1 VH with S32Y", "VL": "B1 VL"}, "B32": {"name": "H183/L072 VH A56Q (antibody, name in Kabat numbering, V domains shown)", "VH": "B1 VH with S32A, A59Q", "VL": "B1 VL"}, "B33": {"name": "H183/L072 VH A56N (antibody, name in Kabat numbering, V domains shown)", "VH": "B1 VH with S32A, A59N", "VL": "B1 VL"}},
  "note": "Where a chain is given by its changes, count along the chain named. Numbers in names are those of the source.",
  "data": [
    {"biological_target": "T1, Human CD137 ECD (human)", "T1 construct": "also called 4-1BB", "T1 sequence (chain, as listed by the source limits assumed)": "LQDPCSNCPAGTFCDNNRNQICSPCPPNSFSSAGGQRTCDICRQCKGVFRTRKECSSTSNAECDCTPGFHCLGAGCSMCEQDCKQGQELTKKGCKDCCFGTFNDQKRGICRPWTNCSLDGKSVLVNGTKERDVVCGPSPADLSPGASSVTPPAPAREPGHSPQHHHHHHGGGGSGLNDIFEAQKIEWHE", "assay": "single mutant vs template dBBDu183H", "units": {"fold change of affinity": "fold"}, "values": [
      {"binder": "B1", "fold change of affinity": 0.9},
      {"binder": "B2", "fold change of affinity": 0.9},
      {"binder": "B3", "fold change of affinity": 3.9},
      {"binder": "B4", "fold change of affinity": 1},
      {"binder": "B5", "fold change of affinity": 1},
      {"binder": "B6", "fold change of affinity": 0.9},
      {"binder": "B7", "fold change of affinity": 0.3},
      {"binder": "B8", "fold change of affinity": 0.2},
      {"binder": "B9", "fold change of affinity": 0.9},
      {"binder": "B10", "fold change of affinity": 1},
      {"binder": "B11", "fold change of affinity": 0.5},
      {"binder": "B12", "fold change of affinity": 0.5},
      {"binder": "B13", "fold change of affinity": 0.6},
      {"binder": "B14", "fold change of affinity": 0.9},
      {"binder": "B15", "fold change of affinity": 0.5},
      {"binder": "B16", "fold change of affinity": 0.6},
      {"binder": "B17", "fold change of affinity": 0.7},
      {"binder": "B18", "fold change of affinity": 0.8},
      {"binder": "B19", "fold change of affinity": 0.3},
      {"binder": "B20", "fold change of affinity": 1.1},
      {"binder": "B21", "fold change of affinity": 3.7},
      {"binder": "B22", "fold change of affinity": 1.1},
      {"binder": "B23", "fold change of affinity": 0.8},
      {"binder": "B24", "fold change of affinity": 0.2},
      {"binder": "B25", "fold change of affinity": 1},
      {"binder": "B26", "fold change of affinity": 0.8},
      {"binder": "B27", "fold change of affinity": 0.5},
      {"binder": "B28", "fold change of affinity": 1},
      {"binder": "B29", "fold change of affinity": 0.9},
      {"binder": "B30", "fold change of affinity": 0.7},
      {"binder": "B31", "fold change of affinity": 0},
      {"binder": "B32", "fold change of affinity": 0.8},
      {"binder": "B33", "fold change of affinity": 0.7}
    ]}
  ]
}
